To fix the notation:
B1: 3E2.1_GS_9E10.1 (PR-1612500) (bispecific antibody, human IgG1, kappa, L234A L235A)
heavy: EVQLVQSGAEVKKPGSSVKVSCKASGYTFTESYMYWVKQAPGQGLELIGRIDPEDGSTDYVEKFKNKATLTADKSTSTAYMELSSLRSEDTAVYFCARFGARSYFYPMDAWGQGTTVTVSSGGGGSGGGGSEIQLVQSGSELKKPGASVKVSCKASGYTFTNYGMYWVKQAPGQGLEYMGWIDTETGRPTYADDFKGRFVFSLDTSVSTAYLQISSLKAEDTAVYFCARWSGDTTGIRGPWFAYWGQGTLVTVSSASTKGPSVFPLAPSSKSTSGGTAALGCLVKDYFPEPVTVSWNSGALTSGVHTFPAVLQSSGLYSLSSVVTVPSSSLGTQTYICNVNHKPSNTKVDKKVEPKSCDKTHTCPPCPAPEAAGGPSVFLFPPKPKDTLMISRTPEVTCVVVDVSHEDPEVKFNWYVDGVEVHNAKTKPREEQYNSTYRVVSVLTVLHQDWLNGKEYKCKVSNKALPAPIEKTISKAKGQPREPQVYTLPPSREEMTKNQVSLTCLVKGFYPSDIAVEWESNGQPENNYKTTPPVLDSDGSFFLYSKLTVDKSRWQQGNVFSCSVMHEALHNAYTQKSLSLSPGK
light: ETVLTQSPATLSLSPGERATLSCRASESVSTLMHWYQQKPGQQPRLLIYGASNLESGVPARFSGSGSGTDFTLTISSLEPEDFAVYFCQQSWNDPWTFGGGTKVEIKGGSGGGGSGGDIRMTQSPSSLSASVGDRVTIECLASEDIYSDLAWYQQKPGKSPKLLIYNANGLQNGVPSRFSGSGSGTDYSLTISSLQPEDVATYFCQQYNYFPGTFGQGTKLEIKRTVAAPSVFIFPPSDEQLKSGTASVVCLLNNFYPREAKVQWKVDNALQSGNSQESVTEQDSKDSTYSLSSTLTLSKADYEKHKVYACEVTHQGLSSPVTKSFNRGEC
notes: DVD-Ig: outer hBFU-3E2.1 (PDGF), inner hBEW-9E10.1 (VEGF), linkers GS-H10 / GS-L10(dR); Human IgG1 L234A, L235A, H435A with kappa light chain
B2: 3E2.1_GS_9E10.6 (PR-1612501) (bispecific antibody, human IgG1, kappa, L234A L235A)
heavy: EVQLVQSGAEVKKPGSSVKVSCKASGYTFTESYMYWVKQAPGQGLELIGRIDPEDGSTDYVEKFKNKATLTADKSTSTAYMELSSLRSEDTAVYFCARFGARSYFYPMDAWGQGTTVTVSSGGGGSGGGGSEVQLVQSGAEVKKPGSSVKVSCKASGYTFTNYGMYWVRQAPGQGLEWMGWIDTETGRPTYADDFKGRFTFTADKSTSTAYMELSSLRSEDTAVYYCARWSGDTTGIRGPWFAYWGQGTLVTVSSASTKGPSVFPLAPSSKSTSGGTAALGCLVKDYFPEPVTVSWNSGALTSGVHTFPAVLQSSGLYSLSSVVTVPSSSLGTQTYICNVNHKPSNTKVDKKVEPKSCDKTHTCPPCPAPEAAGGPSVFLFPPKPKDTLMISRTPEVTCVVVDVSHEDPEVKFNWYVDGVEVHNAKTKPREEQYNSTYRVVSVLTVLHQDWLNGKEYKCKVSNKALPAPIEKTISKAKGQPREPQVYTLPPSREEMTKNQVSLTCLVKGFYPSDIAVEWESNGQPENNYKTTPPVLDSDGSFFLYSKLTVDKSRWQQGNVFSCSVMHEALHNAYTQKSLSLSPGK
light: B1 light with E139T, S189T
notes: DVD-Ig: outer hBFU-3E2.1 (PDGF), inner hBEW-9E10.6 (VEGF), linkers GS-H10 / GS-L10(dR); Human IgG1 L234A, L235A, H435A with kappa light chain
B3: 3E2.1_GS_4G8.5 (PR-1612499) (bispecific antibody, human IgG1, kappa, L234A L235A)
heavy: EVQLVQSGAEVKKPGSSVKVSCKASGYTFTESYMYWVKQAPGQGLELIGRIDPEDGSTDYVEKFKNKATLTADKSTSTAYMELSSLRSEDTAVYFCARFGARSYFYPMDAWGQGTTVTVSSGGGGSGGGGSEIQLVQSGSELKKPGASVKVSCKASGYTFTNYGMYWVRQAPGQGLEYMGWINTETGKPTYADDFKGRFVFSLDTSVSTAYLQISSLKAEDTAVYFCARTNYYYRSYIFYFDYWGQGTMVTVSSASTKGPSVFPLAPSSKSTSGGTAALGCLVKDYFPEPVTVSWNSGALTSGVHTFPAVLQSSGLYSLSSVVTVPSSSLGTQTYICNVNHKPSNTKVDKKVEPKSCDKTHTCPPCPAPEAAGGPSVFLFPPKPKDTLMISRTPEVTCVVVDVSHEDPEVKFNWYVDGVEVHNAKTKPREEQYNSTYRVVSVLTVLHQDWLNGKEYKCKVSNKALPAPIEKTISKAKGQPREPQVYTLPPSREEMTKNQVSLTCLVKGFYPSDIAVEWESNGQPENNYKTTPPVLDSDGSFFLYSKLTVDKSRWQQGNVFSCSVMHEALHNAYTQKSLSLSPGK
light: ETVLTQSPATLSLSPGERATLSCRASESVSTLMHWYQQKPGQQPRLLIYGASNLESGVPARFSGSGSGTDFTLTISSLEPEDFAVYFCQQSWNDPWTFGGGTKVEIKGGSGGGGSGGATQLTQSPSLSASVGDRVTITCRASESVSTHMHWYQQKPGKQPKLLIYGASNLESGVPSRFSGSGSGTDFTLTISSLQPEDFATYFCQQSWNDPFTFGQGTKLEIKRTVAAPSVFIFPPSDEQLKSGTASVVCLLNNFYPREAKVQWKVDNALQSGNSQESVTEQDSKDSTYSLSSTLTLSKADYEKHKVYACEVTHQGLSSPVTKSFNRGEC
notes: DVD-Ig: outer hBFU-3E2.1 (PDGF), inner hBDB-4G8.5 (VEGF), linkers GS-H10 / GS-L10(dR); Human IgG1 L234A, L235A, H435A with kappa light chain
B4: CL-33675_GS_4G8.5 (PR-1612496) (bispecific antibody, human IgG1, kappa, L234A L235A)
heavy: EVTLRESGPALVKPTQTLTLTCTFSGFSLSTYGMGVGWIRQPPGKALEWLANIWWDDDKYYNPSLKNRLTISKDTSKNQVVLTMTNMDPVDTATYYCARIESSGPKYSFDYWGQGTMVTVSSGGGGSGGGGSEIQLVQSGSELKKPGASVKVSCKASGYTFTNYGMYWVRQAPGQGLEYMGWINTETGKPTYADDFKGRFVFSLDTSVSTAYLQISSLKAEDTAVYFCARTNYYYRSYIFYFDYWGQGTMVTVSSASTKGPSVFPLAPSSKSTSGGTAALGCLVKDYFPEPVTVSWNSGALTSGVHTFPAVLQSSGLYSLSSVVTVPSSSLGTQTYICNVNHKPSNTKVDKKVEPKSCDKTHTCPPCPAPEAAGGPSVFLFPPKPKDTLMISRTPEVTCVVVDVSHEDPEVKFNWYVDGVEVHNAKTKPREEQYNSTYRVVSVLTVLHQDWLNGKEYKCKVSNKALPAPIEKTISKAKGQPREPQVYTLPPSREEMTKNQVSLTCLVKGFYPSDIAVEWESNGQPENNYKTTPPVLDSDGSFFLYSKLTVDKSRWQQGNVFSCSVMHEALHNAYTQKSLSLSPGK
light: EIVLTQSPGTLSLSPGERATLSCRASSGSIWYSFVSWYQQKPGQAPRLLIYADDQRASGIPDRFSGSGSGTDFTLTISRLEPEDFAVYYCQSYGINIDVVFGGGTKVEIKGGSGGGGSGGATQLTQSPSLSASVGDRVTITCRASESVSTHMHWYQQKPGKQPKLLIYGASNLESGVPSRFSGSGSGTDFTLTISSLQPEDFATYFCQQSWNDPFTFGQGTKLEIKRTVAAPSVFIFPPSDEQLKSGTASVVCLLNNFYPREAKVQWKVDNALQSGNSQESVTEQDSKDSTYSLSSTLTLSKADYEKHKVYACEVTHQGLSSPVTKSFNRGEC
notes: DVD-Ig: outer CL-33675 (PDGF), inner hBDB-4G8.5 (VEGF), linkers GS-H10 / GS-L10(dR); Human IgG1 L234A, L235A, H435A with kappa light chain

Where a chain is given by its changes, count along the chain named. Names and notes keep the numbering of the source.

As usually defined, the Kd is a measure of binding affinity in units of concentration. One may read the kon as the second-order rate constant of association. The low end stands for slow association, the high end for fast association.

VEGF-A, sequence (P15692 other isoform, or with tags, fused parts or gaps limits assumed): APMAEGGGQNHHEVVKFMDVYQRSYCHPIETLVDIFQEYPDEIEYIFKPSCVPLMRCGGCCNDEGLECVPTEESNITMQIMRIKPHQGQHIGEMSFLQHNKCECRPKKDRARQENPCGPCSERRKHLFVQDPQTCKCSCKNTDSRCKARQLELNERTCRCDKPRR

The first assay deals with PDGF-BB (UniProt P01127 82-190). The experiment in a line: SPR (Biacore), DVD-Ig captured by anti-human Fc, antigen injected. The procedure: (§1) For example, approximately 9000 RU of goat anti-human Fc specific polyclonal antibody (Thermo Fisher Scientific Inc., Rockford, Ill.) diluted in 10 mM sodium acetate (pH 4.5) is directly immobilized across a CM5 research grade biosensor chip using a standard amine coupling kit according to manufacturer's instructions and procedures at 25 μg/ml. Unreacted moieties on the biosensor surface were blocked with ethanolamine. For kinetic analysis, rate equations derived from the 1:1 Langmuir binding model were fitted simultaneously to multiple antigen injections (using global fit analysis) with the use of Scrubber 2 (BioLogic Software), Biacore Biaevaluation 4.0.1 software or Biacore T100 Evaluation software. Purified antibodies or DVD-Ig molecules were diluted in running buffer for capture across goat anti-human Fc reaction surfaces. Antibodies or DVD-Ig molecules to be captured as a ligand (1 μg/ml) were injected over reaction matrices at a flow rate of 10 μl/minute. During the assay, all measurements were referenced against the capture surface alone (i.e., with no captured antibody or DVD-Ig molecule). […] The equilibrium dissociation constant KD (M) of the reaction between antibodies and the target antigen was then calculated from the kinetic rate constants by the following formula: KD=Koff/Kₒₙ. Binding was recorded as a function of time and kinetic rate constants were calculated.
PDGF-BB, sequence (P01127 82-190): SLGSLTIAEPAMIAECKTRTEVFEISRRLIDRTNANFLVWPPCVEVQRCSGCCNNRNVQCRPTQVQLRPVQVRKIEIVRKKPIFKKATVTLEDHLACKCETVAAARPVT
B1 returned a Kd of no more than 0.0043 nM and a kon of no less than 9e+07 M⁻¹ s⁻¹.
In turn, B2 yielded a dissociation constant Kd of no more than 0.0053 nM and a kon of no less than 9e+07 M⁻¹ s⁻¹.
The like results for B3 were, in that order, no more than 0.0038 nM and no less than 9e+07 M⁻¹ s⁻¹.
On to B4, for which the dissociation constant (Kd) is 0.00023 nM and the kon turned out to be 3.8e+07 M⁻¹ s⁻¹.

Another assay deals with VEGF-A (UniProt P15692-4 27-191, limits assumed). Described as above. The procedure:
as §1
As to B1, the Kd stood at 0.019 nM and the kon stood at 630000 M⁻¹ s⁻¹.
Molecule B2 registered a Kd of 0.041 nM and an on-rate (kon) of 570000 M⁻¹ s⁻¹.
The molecule B3 displayed a Kd of 0.17 nM and an association rate constant (kon) of 240000 M⁻¹ s⁻¹.
The molecule B4 showed a Kd of 0.18 nM and a kon of 230000 M⁻¹ s⁻¹.

Source of the values: US20170015742A1 (published 2017).
